According to patent publication US20200087364A1 (IMMATICS BIOTECHNOLOGIES, published 2020):

Biological target: T1, HLA-A*01:01 (human)
T1 construct: MHC class I monomer first loaded with a UV-sensitive peptide (not identified) that is cleaved by UV irradiation and exchanged for the tested peptide; captured on streptavidin plates, detected with anti-β2m; also called peptide-receptive MHC molecules
Experiment: UV-ligand exchange, anti-b2m ELISA
Description: Candidate peptides for T cell based therapies according to the present invention were further tested for their MHC binding capacity (affinity). The individual peptide-MHC complexes were produced by UV-ligand exchange, where a UV-sensitive peptide is cleaved upon UV-irradiation and exchanged with the peptide of interest as analyzed. Only peptide candidates that can effectively bind and stabilize the peptide-receptive MHC molecules prevent dissociation of the MHC complexes. To determine the yield of the exchange reaction, an ELISA was performed based on the detection of the light chain (β2m) of stabilized MHC complexes. The assay was performed as generally described in Rodenko et al. (Rodenko et al., 2006)
96 well MAXISorp plates (NUNC) were coated over night with 2 ug/ml streptavidin in PBS at room temperature, washed 4× and blocked for 1 h at 37° C. in 2% BSA containing blocking buffer. Refolded HLA-A*02:01/MLA-001 monomers served as standards, covering the range of 15-500 ng/ml. Peptide-MHC monomers of the UV-exchange reaction were diluted 100-fold in blocking buffer. Samples were incubated for 1 h at 37° C., washed four times, incubated with 2 ug/ml HRP conjugated anti-β2m for 1 h at 37° C., washed again and detected with TMB solution that is stopped with […]. Absorption was measured at 450 nm.

| Binder | peptide exchange yield |
| --- | --- |
| TLDSTRTLY | > 75% |
| VSERTGISY | 50 to 75% |
| ITDTLIHLM | 50 to 75% |
| ITDTLIHL | 20 to 50% |
| VVFDKSDLAKY | 20 to 50% |
| EVVEGKEWGSFY | 50 to 75% |
| TTENSGNYY | > 75% |
| NSNLKFLEV | 20 to 50% |
| ISEDKSISF | 20 to 50% |
| IGDKVDAVY | 20 to 50% |
| TPIPFDKILY | 20 to 50% |
| KASSVSAEDGY | 20 to 50% |
| ASDHWRGRY | 50 to 75% |
| ASCRSSAEY | > 75% |
| AVAAAAGASLY | 20 to 50% |
| NEIDIHSIYFY | 20 to 50% |
| RSDIGEFEW | 20 to 50% |
| SPAKQFNIY | 50 to 75% |
| LTWAHSAKY | 50 to 75% |
| TVFDENLSRY | 20 to 50% |
| SADEAHGLL | 20 to 50% |
| ISEAPLTEV | 20 to 50% |
| YTDFVGEGLY | 50 to 75% |

| Binder | peptide exchange yield |
| --- | --- |
| LLKAKDILY | 20 to 50% |
| FLKVTGYDKDDY | 20 to 50% |
| FQYELRELY | > 75% |
| TTDPKKFQY | > 75% |
| VPFNLITEY | 10 to 20% |
| YTEFVDATFTK | > 75% |
| STIDFRAGF | 20 to 50% |
| YIGLKGLYF | 20 to 50% |
| LEDGIEQSAY | 20 to 50% |
| RTHIGYKVY | 50 to 75% |
| NTHTGTRPY | 20 to 50% |
| ITDVGPGNY | 50 to 75% |
| SAPSSSGSPLY | 20 to 50% |
| TFDKQIVLL | 20 to 50% |
| RRLNFSGFGY | 50 to 75% |
| EAYLERIGY | 50 to 75% |
| IPVHDSVGVTY | 50 to 75% |
| PVHDSVGVTY | 20 to 50% |
| SQHIFTVSY | 20 to 50% |
| DAVAPGREY | 20 to 50% |
| IEKFAVLY | 50 to 75% |
| QSEKEPGQQY | 50 to 75% |
| HVSGQMLYF | 20 to 50% |

| Binder | peptide exchange yield |
| --- | --- |
| RTIEGDFLW | 20 to 50% |
| LSDAVHVEF | 50 to 75% |
| LCATVCGTEQY | 20 to 50% |
| AQVQDTGRY | 50 to 75% |
| GTKQWVHARY | 10 to 20% |
| PIMSSSQALY | 20 to 50% |
| FTTLSDLQTNMA | 20 to 50% |
| YEVDTKLLSL | 20 to 50% |
| YLEDRPLSQ | 20 to 50% |
| YLDSSKPAVY | 50 to 75% |
| HSIEVFTHY | 20 to 50% |
| SIEVFTHY | 50 to 75% |
| HTMEVTVY | 50 to 75% |
| STALSILLL | 20 to 50% |
| GLIEVVTGY | > 75% |
| EVTDRNMLAF | 50 to 75% |
| RQAPGPARDY | 20 to 50% |
| EVLGEEMYAY | 20 to 50% |
| EAAPDIMHY | 20 to 50% |
| IADNPQLSFY | > 75% |
| NSDISIPEY | 50 to 75% |
| KIRAEVLSHY | 20 to 50% |
